The source of these data is article PMC3406085.

What is called stoichiometry N is a count of units in the complex or per binding partner.

The experiment deals with Merkel cell polyomavirus (MCPyV) major capsid protein VP1, amino acids 38-320, unassembled pentamer (Merkel cell polyomavirus (w162)). Briefly: crystal structure; unassembled VP1 pentamers, native and soaked with DSL, 3SLN or GD1a; hanging drop at 20°C, 100 mM sodium cacodylate pH 6.5, 6% PEG 3,350, 300 mM magnesium chloride; four VP1 pentamers in the asymmetric unit.

In turn, “Merkel cell polyomavirus (MCPyV) major capsid protein VP1, amino acids 38-320, unassembled pentamer (domain or fragment)” registered a stoichiometry N of 5.
